We go through one sequence from article PMC10907721.

The target of this data set is T1, Hop1 CBR WT (Saccharomyces cerevisiae) (UniProt P20050).
T1 sequence: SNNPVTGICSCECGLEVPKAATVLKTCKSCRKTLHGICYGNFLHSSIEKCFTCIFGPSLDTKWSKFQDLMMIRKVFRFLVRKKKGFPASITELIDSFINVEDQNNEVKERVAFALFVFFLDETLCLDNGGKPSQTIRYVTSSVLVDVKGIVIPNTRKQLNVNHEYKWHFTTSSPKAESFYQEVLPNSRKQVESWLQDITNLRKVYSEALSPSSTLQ
Briefly: EMSA. As to conditions: EMSA: 20 mM Tris-HCl pH 7.5, 25 mM NaCl, 2 mM beta-mercaptoethanol, 10% glycerol; 50 nM nucleosome or DNA; 15 min room temperature; 6% TBE-acrylamide gel, 0.2X …. (In EMSA bound probe runs differently from free probe, usually more slowly.)

Broadly, the Kd is the equilibrium constant for the complex coming apart. As for “TGGAGAATCCCGGTGCCGAGGCCGCTCAATTGGTCGTAGACAGCTCTAGCACCGCTTAAACGCACGTACGCGCTGTCCCCCGCGTTTTAACCGCCAAGGGGATTACTCCCTAGTCTCCAGGCACGTGTCAGATATATACATCCTGT (double strand) [Widom 601 mononucleosome (human histones)]”, the equilibrium dissociation constant (Kd) was found to be 470 nM.
